# Experimental data published in the DeepSol protein solubility set.
# Assay: soluble on expression in E. coli; label from the status in PepcDB or PDB records
row,Sequence,soluble on expression in E. coli
1,GMEQATRTIYSEYAAYPETQGIIAVEKRQPRDSLTDQFDVLLLVITRDPSVEWTVKHYRLNTLRVSLHLVHEQVLSRWLILNANRRAVHWVSEGTIIFERNDYLTDLKKQLRNFPETERCLQMSLSFAKLLRRFQDGRNLFSRGNYYDAYTHVHHALHHLARLSVLEKGAHPEVVVWEQARLDDPDVYKLYEQLLLSEETLEQRIHLALIGLEHLLQSKVLSGGKYLFEVMRERDRPWTMHELMEESRLTELKVDLGSLVDFFIRKGLIRISYQRTKGLGVELVTYEPVV,soluble
2,MNSFKKFLNKKRVQNHFKKSGEGVRLSSGESSSQPSAHAGAAQGGQIDRVAAADIAAQAAFKRMQKNEPQQNAGKRRIQMIAKRELEEERRQVEDLNISGTSSLQQPDREQHLEHSSAISRVLYTSELLGEHHIRSKADLLEDIKNFLSDQISEADDENDKVIAAVLMLYSLNKKHPKETAIETICKYCQNILEHPGEDKYKSIRLGNKAFQERVASVVGGRAFLEAVGFTEKSEGEDKFLVFTKPSDVHLVEALEALKDGQAVPIKVARNLEIFKLKEGQKPKAPKLADDFYNLSTAELKAEQRNKEMQVERMLTLRTKEMRQKDEQMTNYRYKYTLIRVRLPGNLLMQGVFGCHEPFSAVRVFVASTLSDALSTSEFTLRDAASQLVEDESASLAQLSLAPAALLHVVFAENLSDYGQIVADEHIEIIQELEASD,not soluble
3,MGSDKIHHHHHHMIDGKTANEIFDSIRQHIIAGTLRAEDSLPPVRELASELKVNRNTVAAAYKRLITAGLAQSLGRNGTVIKGSPSPVALEGGDPHTPLHDLSGGNPDPQRLPDLSRYFARLSRTPHLYGDAPVSPELHAWAARWLRDATPVAGEIDITSGAIDAIERLLCAHLLPGDSVAVEDPCFLSSINMLRYAGFSASPVSVDSEGMQPEKLERALNQGARAVILTPRAHNPTGCSLSARRAAALQNMLARYPQVVVIIDDHFALLSSSPWQPVIAQTTQHWAVIRSVSKTLGPDLRLAIVASDSATSAKLRLRLNAGSQWVSHLLQDLVYACLTDPEYQHRLTQTRLFYAARQQKLARALQQYGIAISPGDGVNAWLPLDTHSQATAFTLAKSGWLVREGEAFGVSAPSHGLRITLSTLNDSEINTLAADIHQALNR,not soluble
4,MGHHHHHHSHMKVVLSLGGSVLSNESEKIREFAKTIESVAQQNQVFVVVGGGKLAREYIKRARELGASETFCDYIGIAATRLNAMLLISAIPSAAKKVPVDFMEAEELSKLYRVVVMGGTFPGHTTDATAALLAEFIKADVFINATNVDGVYSADPKSDTSAVKYDRLSPQQLVEIVSRSSAKAGTNVVIDLLAAKIIERSKIKTYVIL,soluble
5,MIFGRSQRGKPPVEPVTLKILVAGGFGVGKTTLVGAVSEIRPLRTEELLTEAGRPVDDVSGVEGKHTTTVAMDFGRITLREDLVLYLFGTPGQERFWFMWDELSEGALGAVVLADTRRLEDCFAAIDYFERRSIPFVVGVNCFEGSARYPGETVRQALDLDEDVPLVMCDARDRESVKEVLIGVVQHAMTQAADRRRAVPTLEHHHHHH,not soluble
6,MQASQFSAQVLDWYDKYGRKTLPWQIDKTPYKVWLSEVMLQQTQVATVIPYFERFMARFPTVTDLANAPLDEVLHLWTGLGYYARARNLHKAAQQVATLHGGKFPETFEEVAALPGVGRSTAGAILSLSLGKHFPILDGNVARVLARCYAVSGWPGKKEVENKLWSLSEQVTPAVGVERFNQAMMDLGAMICTRSKPKCSLCPLQNGCIAAANNSWALYPGKKPK,soluble
7,MAEDLYKRLNTVDRLFTLALDLHSHTDLAAQTLMKSGKVHSIERVETDMLYQNHDKKFHLRSREFLDFPQNYCDLIVSLLSLQLTNDTPGVLSQIKNILKPDGLFLAVMAGVGTLSELRECLLQAEIEIYGGASPRIYPFADIRAVGALLQRVGFALPVADIEDVTIRYDTMFDLINDLRAMGMQNALINRSRRPVSKRFFLRAAEIYAKRFSDLDGRIRAHFSFIWLSGWAPHPNQQKPIQPGSAQISLADVLVKQSKKT,not soluble
8,ISEFSDWQETLLEHLTQWVEAEIERDIAVDSHEESQRLLEATFNSPETFIGILDADGTLIRANETALGFIDADAADVCGEPFCETPWWNHDEAVANRCREAVERTRAGETVRFEAEHVGADGQRISTSVVARPVTAD,not soluble
9,MPRTHGYAPIGKRCHGKCNWHARGRINVIGALIGKCLLTVGLFKNNIDADTFLGWTIHDLLPKLPPASIVVMDNATFRKRQDIQNVITRGGHTLEYLPAYSPDLNPIEHKWAQTKAVRKQQNQTVEQLFKIESFYVTLEHHHHHH,soluble
